The text below walks through data of patent publication US20220195052A1.

In the assay the target is human αvβ1 integrin on cells (human) (UniProt P06756). In words: inhibition of adhesion of BCECF-labelled αvβ1-transfected cells to plate-coated LAP.
Sequence of human αvβ1 integrin on cells (human) (P06756 31-1048 limits assumed, chain 1 of 2): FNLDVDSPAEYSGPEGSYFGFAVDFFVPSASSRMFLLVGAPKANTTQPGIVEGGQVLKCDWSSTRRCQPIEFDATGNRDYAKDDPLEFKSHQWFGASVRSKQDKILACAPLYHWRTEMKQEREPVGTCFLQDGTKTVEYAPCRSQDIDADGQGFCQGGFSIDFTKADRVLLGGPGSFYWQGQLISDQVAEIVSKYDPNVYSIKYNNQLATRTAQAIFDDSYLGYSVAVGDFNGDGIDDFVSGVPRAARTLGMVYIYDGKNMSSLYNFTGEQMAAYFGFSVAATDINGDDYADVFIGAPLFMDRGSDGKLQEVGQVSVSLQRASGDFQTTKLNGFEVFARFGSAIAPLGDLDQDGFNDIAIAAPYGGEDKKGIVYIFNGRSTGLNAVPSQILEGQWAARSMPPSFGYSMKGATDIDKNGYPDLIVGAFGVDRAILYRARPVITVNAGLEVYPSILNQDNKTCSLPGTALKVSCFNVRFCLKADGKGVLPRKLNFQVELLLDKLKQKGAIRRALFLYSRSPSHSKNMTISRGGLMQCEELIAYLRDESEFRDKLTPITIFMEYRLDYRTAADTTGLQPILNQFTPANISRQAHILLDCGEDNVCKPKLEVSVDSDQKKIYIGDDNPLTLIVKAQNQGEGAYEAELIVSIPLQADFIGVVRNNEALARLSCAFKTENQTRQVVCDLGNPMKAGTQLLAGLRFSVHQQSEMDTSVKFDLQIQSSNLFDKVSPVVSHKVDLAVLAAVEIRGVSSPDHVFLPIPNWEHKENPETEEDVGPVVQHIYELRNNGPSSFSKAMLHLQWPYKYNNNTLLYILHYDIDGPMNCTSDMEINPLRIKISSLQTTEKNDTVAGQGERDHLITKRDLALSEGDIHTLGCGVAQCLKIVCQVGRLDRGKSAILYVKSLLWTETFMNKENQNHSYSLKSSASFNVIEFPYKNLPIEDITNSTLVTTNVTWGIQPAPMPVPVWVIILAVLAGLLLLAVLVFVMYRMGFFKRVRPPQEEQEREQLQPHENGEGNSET
Sequence of human αvβ1 integrin on cells (human) (chain, as listed by the source limits assumed, chain 2 of 2): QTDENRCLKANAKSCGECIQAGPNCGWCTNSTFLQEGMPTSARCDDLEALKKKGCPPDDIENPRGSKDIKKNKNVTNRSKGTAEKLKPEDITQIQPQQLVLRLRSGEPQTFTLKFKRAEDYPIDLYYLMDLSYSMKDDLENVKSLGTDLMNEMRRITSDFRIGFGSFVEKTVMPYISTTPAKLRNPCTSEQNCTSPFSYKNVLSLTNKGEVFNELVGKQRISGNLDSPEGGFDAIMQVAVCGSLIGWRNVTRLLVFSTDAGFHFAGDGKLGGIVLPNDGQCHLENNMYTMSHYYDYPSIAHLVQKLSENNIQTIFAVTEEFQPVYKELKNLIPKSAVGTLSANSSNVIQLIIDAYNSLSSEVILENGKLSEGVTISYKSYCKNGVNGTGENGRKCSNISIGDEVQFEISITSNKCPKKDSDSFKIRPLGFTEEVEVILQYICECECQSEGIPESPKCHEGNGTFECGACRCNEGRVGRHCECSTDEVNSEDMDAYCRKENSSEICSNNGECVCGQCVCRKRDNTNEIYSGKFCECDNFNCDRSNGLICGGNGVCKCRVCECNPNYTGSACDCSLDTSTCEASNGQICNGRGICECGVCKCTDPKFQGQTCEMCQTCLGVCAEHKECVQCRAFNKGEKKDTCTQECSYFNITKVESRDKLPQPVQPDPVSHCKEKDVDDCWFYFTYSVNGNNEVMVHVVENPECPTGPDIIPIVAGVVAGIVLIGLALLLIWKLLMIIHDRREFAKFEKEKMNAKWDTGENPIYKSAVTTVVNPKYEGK

With L230 (pan-αv commercial antibody), the IC50 turned out to be 1 nM.

Broadly, the IC50 is the concentration needed to halve the response being measured.
